Article PMC6833485

Target: thrombin (Homo sapiens, UniProt P00734;P00734 328-363;364-622)
Experiment: reflectometric interference spectroscopy (RIfS), immobilized aptamer; PBS + MgCl2; sigmoidal fit of dEOT; Binding buffer PBS + MgCl2 (concentration, pH not given); TBA preheated 95 °C 5 min, cooled to room temperature; flow cell, assay temperature not stated

Question: Which Kd does the source give for GGTTGGTGTGGTTGG (structured_DNA, 5'-biotin) [TBA 15-mer (5'-biotin)] here?
Answer: 900 nM
